Reference: patent US8993320B2, “Culture method to obtain and maintain a pure or enriched population of mammalian neural stem cells and/or neural/progenitor cells that are prone to differentiate into oligodendrocyte-lineage cells in vitro” (priority 2011, dated 2015)

Key:
[1] = test system: HFSC cells; assay: Expansion of HFSC cells with growth factors and supplements (live cell count); type: cell-based, human; details: cell line #2b and cell line #3; same condition except for PDGF-AA
Experimental: FIG. 4 illustrates the expansion rate of HFSC cells (cell line #2b) in the presence of different combinations of growth factors: (1): 20 ng/ml PDGF-AA+10 ng/ml bFGF; (2): 20 ng/ml PDGF-AA+10 ng/ml bFGF+5 ng/ml NT-3; (3): 20 ng/ml PDGF-AA+10 ng/ml bFGF+10 ng/ml IGF-1; (4): 20 ng/ml PDGF-AA+10 ng/ml bFGF+5 ng/ml NT-3+10 ng/ml IGF-1. The cells were harvested at day 11 of passage 3 (P3D11) and number of live cells in each condition was counted. Then, they were passaged in the same condition that was used at passage 3 at the same cell density. The cells were harvested at day 8 of passage 4 (P4D8) and number of live cells in each condition was counted (these cells were harvested before they became sub-confluent because they started forming spheres). […] Condition (3) was effective at both passages. […] The cells were harvested at day 7 of passage 5 (these cells were harvested before they became sub-confluent because they started forming spheres as they did at passage 4) and number of live cells in each condition was counted. […]

[2] = test system: HFSC cells; assay: as above; type: cell-based, human; details: 10 ng/ml NT-3 added at passage 17; cell line #2b; effect disappeared after a passage

Row | Molecule | expansion of cells when replacing PDGF-AA [1] | effect on cell growth [2]
1 | PDGF-BB: PDGF family member used to replace PDGF-AA (protein, UniProt P01127 82-190, looked up) Platelet-derived growth …: SLGSLTIAEPAMIAECKTRTEVFEISRRLIDRTNANFLVWPPCVEVQRCSGCCNNRNVQCRPTQVQLRPVQVRKIEIVRKKPIFKKATVTLEDHLACKCETVAAARPVT | could expand both cell lines | 
2 | neurotrophin-3 (protein, UniProt P20783 139-257, looked up, growth factor) Neurotrophin-3: YAEHKSHRGEYSVCDSESLWVTDKSSAIDIRGHQVTVLGEIKTGNSPVKQYFYETRCKEARPVKNGCRGIDDKHWNSQCKTSQTYVRALTSENNKLVGWRWIRIDTSCVCALSRKIGRT |  | enhanced the cell growth a little bit
